For test [1], the target named is T1, human BTN2A1, expressed on HEK293 cells (human, UniProt Q7KYR7 29-527).
T1 construct: also called NM_007049
T1 sequence: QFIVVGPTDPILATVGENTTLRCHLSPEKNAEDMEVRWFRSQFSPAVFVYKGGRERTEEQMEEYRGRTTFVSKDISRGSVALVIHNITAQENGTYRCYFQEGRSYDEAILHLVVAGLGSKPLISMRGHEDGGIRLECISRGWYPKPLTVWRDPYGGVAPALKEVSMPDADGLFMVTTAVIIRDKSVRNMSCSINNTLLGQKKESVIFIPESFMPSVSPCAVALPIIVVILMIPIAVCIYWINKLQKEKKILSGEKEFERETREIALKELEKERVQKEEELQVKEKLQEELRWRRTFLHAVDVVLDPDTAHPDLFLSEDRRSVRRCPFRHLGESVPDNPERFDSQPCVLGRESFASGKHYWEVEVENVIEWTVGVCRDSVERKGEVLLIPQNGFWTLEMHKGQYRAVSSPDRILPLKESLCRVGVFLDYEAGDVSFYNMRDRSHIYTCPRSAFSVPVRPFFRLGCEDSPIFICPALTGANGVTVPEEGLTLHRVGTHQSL
The test can be described thus: Retrogenix cell microarray, fixed HEK293 cells. How it is done: (§1) Human cell membrane receptor proteome arrays were performed at Retrogenix Ltd. Primary screens: 2 μg/ml of each antibody was screened for binding against fixed HEK293 cells/slides expressing 5528 human plasma membrane and tethered secreted proteins individually. […] Antibody binding was detected using AF647 fluorescent secondary anti-human IgG1 antibody. Primary hits (duplicate spots) were identified by analysing fluorescence (AF647 and ZsGreen1) on ImageQuant. Confirmation/specificity screens: Expression vectors encoding ZsGreen1 only, or ZsGreen1 and CD20, PD1, BTN2A1, or LSAMP were transfected into human HEK293 cells. […] Cells were washed, and incubated with the same AF647 anti-human IgG Fc detection antibody as used in the cell microarray screens. Cells were again washed, and analysed by flow cytometry using an Accuri flow cytometer (BD). A 7AAD live/dead dye was used to exclude dead cells, and ZsGreen1-positive cells (i.e. transfected cells) were selected for analyses.

The target in test [2] is T2, human LSAMP, expressed on HEK293 cells (human, UniProt Q13449 29-315).
T2 construct: also called BC033803
T2 sequence: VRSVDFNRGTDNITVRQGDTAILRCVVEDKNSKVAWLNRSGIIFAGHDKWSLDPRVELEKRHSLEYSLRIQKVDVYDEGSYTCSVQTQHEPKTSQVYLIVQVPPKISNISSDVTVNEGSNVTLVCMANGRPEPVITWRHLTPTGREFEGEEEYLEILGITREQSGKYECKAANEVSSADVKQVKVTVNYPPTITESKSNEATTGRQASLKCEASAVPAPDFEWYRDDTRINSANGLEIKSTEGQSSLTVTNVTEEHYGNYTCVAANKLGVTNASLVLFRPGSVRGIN
The test can be described thus: flow cytometry on transfected HEK293 cells, 2 ug/ml IgG. As for the experimental part: (§2) FIG. 11. […] Analyses of binding specificity were performed on HEK293 cells transiently transfected with plasmids encoding either human PD1, human BTN2A1, human LSAMP, human CD20 or ZS green marker only. Each antibody was used in staining at […] concentration and histograms are indicated per antibody in this figure.
as §1

Test [3] concerns the target T3, human CD20, expressed on HEK293 cells (human, UniProt P11836 1-297).
T3 construct: whole, on cells
T3 sequence (looked up): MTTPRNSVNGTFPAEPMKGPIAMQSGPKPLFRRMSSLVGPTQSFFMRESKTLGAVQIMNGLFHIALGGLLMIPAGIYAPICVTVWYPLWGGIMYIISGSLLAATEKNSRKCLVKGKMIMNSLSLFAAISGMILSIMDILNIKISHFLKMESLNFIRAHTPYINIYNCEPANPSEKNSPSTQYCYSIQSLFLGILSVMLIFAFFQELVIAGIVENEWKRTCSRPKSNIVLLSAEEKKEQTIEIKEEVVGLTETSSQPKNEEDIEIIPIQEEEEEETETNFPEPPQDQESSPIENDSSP
The description is as above. How it is done:
as §2, §1

The target of test [4] is T1, human BTN2A1, expressed on HEK293 cells. Described as above. How it is done:
as §2, §1

Test [5] deals with T4, cynomolgus monkey PD1, membrane-expressed on CHO-K1 stable cell line (cynomolgus monkey, UniProt Q15116 25-288 (human entry)).
T4 construct: Genscript cell line M00572; also called membrane-presented cyno PD1
T4 chain: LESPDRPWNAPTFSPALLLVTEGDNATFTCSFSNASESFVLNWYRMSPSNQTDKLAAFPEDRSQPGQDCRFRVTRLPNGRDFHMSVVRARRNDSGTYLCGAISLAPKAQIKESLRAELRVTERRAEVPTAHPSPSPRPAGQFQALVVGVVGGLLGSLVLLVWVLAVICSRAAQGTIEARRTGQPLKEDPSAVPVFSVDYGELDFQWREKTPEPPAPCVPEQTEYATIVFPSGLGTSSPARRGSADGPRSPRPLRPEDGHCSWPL
The test can be described thus: flow cytometry on CHO cells stably transfected with cyno PD1 (reference antibody). How it is done:
The IgG samples were titrated in three-fold serial dilutions starting at 500 nM to 0.98 nM. Binding of IgGs was detected with a mouse anti-human IgG conjugated to FITC. Results were analyzed by examining the Mean Fluorescence Intensity (MFI) of 10000 cells per sample in the BL-1 channel detector of a flow cytometer (Attune™ NxT Acoustic Focusing Cytometer, Invitrogen/ThermoFisher Scientific).
Antibodies to PD1 were analysed for concentration-dependent binding at the cell surface via flow cytometry. Initial analyses were performed on CHO cells stably-transfected with human or cyno PD1.
On the technique in general: A flow cytometer gives signals particle by particle.

The target in test [6] is T2, human LSAMP, expressed on HEK293 cells. The test can be described thus: flow cytometry on live transfected HEK293 cells. How it is done:
as §2, §1

The target of test [7] is T3, human CD20, expressed on HEK293 cells. The test can be described thus: flow cytometry on live transfected HEK293 cells. As for the experimental part: as §2, §1
The target of test [8] is T5, human PD1, membrane-expressed on transfected cells (CHO-K1 stable line, HEK293 transfectants, PD1 effector … (human, UniProt Q15116 25-288)).
T5 construct: also called PD1 (PDCD1) NM_005018; membrane-presented human PD1
T5 sequence (Q15116 25-288 limits assumed): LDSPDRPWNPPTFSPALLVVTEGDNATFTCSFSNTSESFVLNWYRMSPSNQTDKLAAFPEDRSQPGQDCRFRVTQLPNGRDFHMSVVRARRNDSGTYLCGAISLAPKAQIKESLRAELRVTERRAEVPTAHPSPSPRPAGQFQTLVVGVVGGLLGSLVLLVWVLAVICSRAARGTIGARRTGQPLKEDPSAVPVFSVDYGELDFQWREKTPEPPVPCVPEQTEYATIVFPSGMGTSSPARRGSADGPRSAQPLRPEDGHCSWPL
The test can be described thus: Retrogenix cell microarray, fixed HEK293 cells, 2 ug/ml IgG.

We go through one molecule from patent US20200332006A1 (ULTRAHUMAN NINE, published 2020).

B1: Hu317 humanized anti-PD1 antibody, IgG1null format (antibody, V domains shown)
VH: QVQLQESGPGLVKPSETLSLTCTVSGFSLTSYGVHWIRQPPGKGLEWIGVIYADGSTNYNPSLKSRVTISKDTSKNQVSLKLSSVTAADTAVYYCARAYGNYWYIDVWGQGTTVTVSS
VL: DIVMTQSPDSLAVSLGERATINCKSSESVSNDVAWYQQKPGQPPKLLINYAFHRFTGVPDRFSGSGYGTDFTLTISSLQAEDVAVYYCHQAYSSPYTFGQGTKLEIK
notes: Tested as IgG1null (human IgG1 L234A, L235A, G237A) with human Ckappa; also called hu317 IgG1
Turning to B1, the binding result in test [1] is on record as “no binding (tested: 2 ug/ml)”; in test [5], “binds”; in test [6] it was “no binding (tested: 2 ug/ml)”; in test [7], “no binding (tested: 2 ug/ml)”; in test [8], “binds”. Also, the “fold fluorescence change versus mock (ZSgreen only) cells” value in test [2] was determined as 1.5 fold; in test [3], 1.4 fold; in test [4], 1.2 fold.
